Results published in patent US20210162029A1.

Molecular target: T1, KLK14 (UniProt Q9P0G3)
T1 sequence (looked up): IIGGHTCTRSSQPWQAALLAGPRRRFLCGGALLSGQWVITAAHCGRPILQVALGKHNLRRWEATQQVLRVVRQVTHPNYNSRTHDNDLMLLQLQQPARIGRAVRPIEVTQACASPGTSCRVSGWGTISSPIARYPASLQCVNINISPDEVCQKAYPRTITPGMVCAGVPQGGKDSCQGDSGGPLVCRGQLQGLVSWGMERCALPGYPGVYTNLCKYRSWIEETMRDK
Assay: cell-based or functional assay

- % inhibition (mean) of KLK14 (30 nM) evoked FLIPR signal in TRPV1 cells; LEKTI D6 at 0.003 µM: -4%
- % inhibition (mean) of KLK14 (30 nM) evoked FLIPR signal in TRPV1 cells; LEKTI D6 at 0.01 µM: 21.6%
- % inhibition (mean) of KLK14 (30 nM) evoked FLIPR signal in TRPV1 cells; LEKTI D6 at 0.03 µM: -11.1%
- % inhibition (mean) of KLK14 (30 nM) evoked FLIPR signal in TRPV1 cells; LEKTI D6 at 0.1 µM: 12.4%
- % inhibition (mean) of KLK14 (30 nM) evoked FLIPR signal in TRPV1 cells; LEKTI D6 at 0.3 µM: 16.8%
- % inhibition (mean) of KLK14 (30 nM) evoked FLIPR signal in TRPV1 cells; LEKTI D6 at 1 µM: 46.9%
- % inhibition (mean) of KLK14 (30 nM) evoked FLIPR signal in TRPV1 cells; LEKTI D6 at 3 µM: 56.4%
- % inhibition (mean) of KLK14 (30 nM) evoked FLIPR signal in TRPV1 cells; LEKTI D6 at 10 µM: 39.3%
- % inhibition (mean) of KLK14 (30 nM) evoked FLIPR signal in TRPV4 cells; LEKTI D6 at 0.003 µM: -24.1%
- % inhibition (mean) of KLK14 (30 nM) evoked FLIPR signal in TRPV4 cells; LEKTI D6 at 0.01 µM: -11%
- % inhibition (mean) of KLK14 (30 nM) evoked FLIPR signal in TRPV4 cells; LEKTI D6 at 0.03 µM: 9.9%
- % inhibition (mean) of KLK14 (30 nM) evoked FLIPR signal in TRPV4 cells; LEKTI D6 at 0.1 µM: 6.4%
- % inhibition (mean) of KLK14 (30 nM) evoked FLIPR signal in TRPV4 cells; LEKTI D6 at 0.3 µM: 1.5%
- % inhibition (mean) of KLK14 (30 nM) evoked FLIPR signal in TRPV4 cells; LEKTI D6 at 1 µM: 6.3%
- % inhibition (mean) of KLK14 (30 nM) evoked FLIPR signal in TRPV4 cells; LEKTI D6 at 3 µM: 26.7%
- % inhibition (mean) of KLK14 (30 nM) evoked FLIPR signal in TRPV4 cells; LEKTI D6 at 10 µM: 73%
B1: LEKTI Domain 6 (protein)
chain: ESGKATSYAELCSEYRKLVRNGKLACTRENDPIQGPDGKVHGNTCSMCEVFFQAEEEEKKKKEGKSRN
